Reference: the nanobody polyreactivity screen of Harvey et al. (2022)

test: yeast display, Sf9 membrane polyspecificity reagent, FACS + sequencing; frameworks hold sequencing errors
How it was run: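 Polyreactivity labels are assigned by the sorting gate from which each nanobody was recovered. The gates were low and high (top ~1%), set on anti-HA fluorescence for expression and streptavidin fluorescence for reagent binding. Before sorting, galactose-induced (36–48 hours) yeast display cells were stained for 1 hour at 4 °C with 10% biotinylated, detergent-solubilized Sf9 membrane reagent.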

Sequence	polyreactivity (PSR sort gate)
QVQLVESGGGLVQAGGSLRLSCAASGSILYVYDMGWYRQAPGNERELVATITGRVVSTNYADSVKGRFTISRDNAKNTVYLQMNSLKPEDTAVYYCAARTRRRRGEYDYWGQGTQVTVSS	high polyreactivity
QVQLVESGGGLVQAGGSLRLSCAASGSILYWNAMGWYRQAPGKERELVADITWRGGSTYADSVKGRFTISRDNAKNTVYLQMNSLKPEDTAVYYCNAVPVRGSAPRYRQTYSYWGQGTQVTVSS	high polyreactivity
QVQLVESGGGLVQAGGSLRLSCAASGSIMNNYAMGWYRQAPGKERELVAAISSSGGTNYADSVKGRFTISRDNAKNTVYLLMNSLKPEDTAVYYCNADVMDGGYDYWGQGTQVTVSS	low polyreactivity
QVQLVESGGGLVQAGGSLRLSCAASGSINCSNAMGLYRKAPRKERDLVAAITESGGDTYYADSVKGRFTISRDNAKNTVYLLINSMKPEDTAVYYCAARYFGVIVDVSLFSEYGSWGQGTQVTVSS	low polyreactivity
QVQLVESGGGLVQAGGSLRLSCAASGSIQGKNAMRWYRPAPGKERELVAAISTRGGSTYYADSVKGRFTISRDNAKNSVYFQMNSLKPEDTAVYYCNARWREYKAKWGSRYDYWGQGTQVTVSS	high polyreactivity
QVQLVESGGGLVQAGGSLRLSCAASGSIQYRYAMGWYRQAPGKERELVAAITRSGGSTYYADSVKGRFTISRDNAKNTVYLQMNSLKPEDTAVYYCARQRKVSAHSIEMDYWGQGTQVTVSS	low polyreactivity
QVQLVESGGGLVQAGGSLRLSCAASGSIQYYAMGWYRQAPGKERELVAAIRFSGGRTYYADSVKGRFTISRDNAKNTVYLQMNSLKPEDTAVYYCAAYRSPRRSGAPSQGKFDYWGQGTQVTVSS	low polyreactivity
QVQLVESGGGLVQAGGSLRLSCAASGSIRYNAMGWYRQAPGKERELVAAISYRGGTTYYADSVKGRYTISRDNAKNTVYLQMNSLKPEDTAVYYCNAGVRAYGYSAKYYYWGQGTQVTVSS	high polyreactivity
QVQLVESGGGLVQAGGSLRLSCAASGSISAGNAMGWYRQAPGKERELVAAISISAGRTYYADSVKGRFTISRDNAKNTVYLQMNSLKPEDTAVYYCNAYSSYIKYDYWGQGTQVTVSS	high polyreactivity
QVQLVESGGGLVQAGGSLRLSCAASGSISDSYAMGWYRPAPGKERELVAAITSGDSTYYADSVKGRFTISRDNAKNTVYLQMNSLKPEDTAVYYCAKRVSRVRGYGFTDWSEYDYWGQGTQVTVSS	low polyreactivity
QVQLVESGGGLVQAGGSLRLSCAASGSISFLYTMGWYRQAPGKERELVAAITGSTASTYYADSVKGRFTISRDNAKNTVYLQMNSLKPEDTAVYYCAAYWYAEGYWVSRDYWGQGTQVTVSS	low polyreactivity
QVQLVESGGGLVQAGGSLRLSCAASGSISGINAMGWYRQAPGKERELVAAISRRAGSTYYADSVKGRFTISRDNAKNTVYLQMNSLKPEDTAVYYCAAENFYPYTYYASDYWGQGTQVTVSS	high polyreactivity
QVQLVESGGGLVQAGGSLRLSCAASGSISGIYAMGWYRQAPGKERELVAAISRGGSTNYADSVKGRFTISRDNAKNTVYLQMNSLKPEDTAVYYCAARTAYYPYRQRYYYWGQGTQVTVSS	high polyreactivity
QVQLVESGGGLVQAGGSLRLSCAASGSISGSYAMGWYRQAPGKERELVASITTSGGGTYYADSVKGRFTISRDNAKNTVYLQMNSLKPEDTAVFYCAVEYGYPYAGLDYWGQGTQVTVSS	low polyreactivity
QVQLVESGGGLVQAGGSLRLSCAASGSISGYNAMGWYRQAPGQERELVAAIYRSDGTDYADSVKGRFTISRDNAKNTVYLQMNSLNPEDTAVYYCNADKWSVVGYVRGFYRDDYWGQGTQVTVSS	low polyreactivity
QVQLVESGGGLVQAGGSLRLSCAASGSISGYYAMGGYRQAPGKERELVASIRYTGARTYYADSVKGRFTISRDNAKNTVYLQMNSLKPEDTAVYYCAADVKRDRVWGGDYWGQGTQVTVSS	low polyreactivity
QVQLVESGGGLVQAGGSLRLSCAASGSISGYYAMGWYSQAPVKERELVASIRYTGARTYYADSVKGRFTISRDNAQNTVYLQMNSLKPEDTAVYYCAADVKRDRVWGGDYWGQGTQVTVSS	low polyreactivity
QVQLVESGGGLVQAGGSLRLSCAASGSISKINAMGWYRQAPGKERELVAAINTGDSTYYADSVKGRFTISRDNAKNTVYLKMNSLKPVDSAVYYCAAEGSPTGYDYWGQGTQVTVTS	low polyreactivity
QVQLVESGGGLVQAGGSLRLSCAASGSISLVYAMGWYRQATGKERELVAVINHADDTSYADSVKGRFTISRDNAKNTVYLQMNSLKPEDTADYYCAAESSYFVALTQFYTVEFYYWGQGTQLTVSS	low polyreactivity
QVQLVESGGGLVQAGGSLRLSCAASGSISNQYVMGWYRQAPGKERELVAAIRVIGGSTSYADSVKGRFTISRDNAKNTVYLQMNSLKPEDTAVYYCAADWAWTISDGYYYGYPQYDYWGQGTQVTVSS	high polyreactivity

Sequence	polyreactivity (PSR sort gate)
QVQLVESGGGLVQAGGSLRLSCAASGSISPANTMGWYRQAPGKEREFVAGISRRGGRTYYADSVKGRFTISRDNAKNTVYLQMNSLIPEDTAVYYCATALIVRGPSRYEYWGQGTQVTVSS	high polyreactivity
QVQLVESGGGLVQAGGSLRLSCAASGSISPQNVMGWYRQAPGKERELVAAITGGGSTNYADSVKGRFTISRDNAKNTVYLQMNSLKPEDTAVYYCAVYRRYLPYDYWGQGTQVTVSS	low polyreactivity
QVQLVESGGGLVQAGGSLRLSCAASGSISRVYTMGWYRQAPGKQRELVAVIRRSSGSTYYADSLKGRFTISRDNAKNTVYFQMNSLKPEDTAVYYCAARGYYSGQTTIGMDYWGQGTQVTVSS	low polyreactivity
QVQLVESGGGLVQAGGSLRLSCAASGSISSVYGMGWYRQAPGKERELVAAITSNGGSTYYADSVKGRFTISRDNAKNTVYLQMNSMKPEDTAVYYCAAKYGSRGYYSRGRYYWGQGTQVTVSS	high polyreactivity
QVQLVESGGGLVQAGGSLRLSCAASGSISSYAMGWSRQAPGKERELVASITWHGGGTYYADSVKGRFTISRDNAKNTVYLQMNSLKPEDTAVYYCAKDNYLDPPYFYRFAGYDYCGQGTQVTVSS	low polyreactivity
QVQLVESGGGLVQAGGSLRLSCAASGSISTYYAMGWYRPAPGKERDLVAAISKSGGSKYYADSVKGRFTISRDNAKNTVYLQMNSLKPEDTAVYYCAARYKGRAFWMDYWGQGTQVTVSS	high polyreactivity
QVQLVESGGGLVQAGGSLRLSCAASGSISVANAMGWYRQAPGKERELVAGITSSGSTYYADSVKGRFTISRDNAKNTVYLQMNSLKPEDTAVYYCNADVHYSTFYTVVVSLYYWGQGSQVTVSS	low polyreactivity
QVQLVESGGGLVQAGGSLRLSCAASGSISVVNMGWYRQAPGKERELVASITSSGSTTYADSVKGRFTISRDNAKNTVYLQMNSLKPEDTAVYYCAADVGTDYTYQHPAGAAYDYWGQGTQVTVSS	low polyreactivity
QVQLVESGGGLVQAGGSLRLSCAASGSISVYNAMGWYRQAPGKERELVAAISWSGGRTSYADSVKGRFTISRDNAKITVYLQMNSLKPEDTALYYCAADELTVLWDEDYWGQGTQVTVSS	low polyreactivity
QVQLVESGGGLVQAGGSLRLSCAASGSISVYYAMGRYRQAPGKERELVASIRYTGGRTYYADSVKGRFTISRDNAKNTVYLQMNSLKPEDTAVYYCAADVKRDRVWGGDYWGHGTQVTVSS	low polyreactivity
QVQLVESGGGLVQAGGSLRLSCAASGSISWYYAMGWYRQAPGKERELVAAISDSGGDTYYADSVKGRFTISRDNAKNTVYLQMNSLKPEDTAVYYCAAQYRGSYRTTYDYWGQGTQVTVSS	low polyreactivity
QVQLVESGGGLVQAGGSLRLSCAASGSISYLYAMGWYRQAPGKERELVAAISRSGASTYYADSVKGRFTISRDNAKNTVYLQMNSLKPEDTAVYYCAAYKIWGRVRYDYWGQGTQVTVSS	low polyreactivity
QVQLVESGGGLVQAGGSLRLSCAASGSISYQNAMGWYRQATGKERELVAAISGDGDSMYYADSVKGRFTISRDNAKNTVYLQMNSLKPEDTAVYYCAAEPNVYFSVFVLFPSDYWGQGTQVTVSS	low polyreactivity
QVQLVESGGGLVQAGGSLRLSCAASGSISYRYAMGWYRQAPGKERELVAGISRSGGSTSYADSVKGRFTISRDNAKNTVYLQMNSLKPEDTAVYYCNRPSSLAWPWTGSFSRYDYWGQGTQVTVSS	low polyreactivity
QVQLVESGGGLVQAGGSLRLSCAASGSISYVNAMGWYRQAPGKERELVAAITGGGSTNYADSVKGRFTISRDNAKNTVYLQMNSLKPEDTAVYYCNSGDSTGEVIGDYWGQGTQVTVSS	low polyreactivity
QVQLVESGGGLVQAGGSLRLSCAASGSISYYAMGWYRQAPGKERELVAAISSSGGSTYYADSVKGRFTISRDNAKNTVYLQMNSLKPEDTAVYYCAAYGRYGAHTGYGSWGQGTQVTVSS	high polyreactivity
QVQLVESGGGLVQAGGSLRLSCAASGSIVIINTMGWYRQAPGKERELVAAISWGGTDTNYADSVKGRFTISRDNAKNTVYVQMNSLKPEDTAVYYCNTDQDLVRSYDYWGQGTQVTVSS	low polyreactivity
QVQLVESGGGLVQAGGSLRLSCAASGSIVTANAMAWYRPAPGKERELVAAITTSGTSTYYADSVKGRFTLSRDNAKNTVYLQMNSLKPEDTSVYYCNADKFYRAGSELDYWGQGTQVTVSS	high polyreactivity
QVQLVESGGGLVQAGGSLRLSCAASGSIVVKYDMSWYRQAPGKERELVAAISGSGGSTYYADSVKGRFTISRDNAKNTVYLQMNSVKPEDTAVYYCAADDYFYSGRYGFEYWGQGTQVTVSS	low polyreactivity
QVQLVESGGGLVQAGGSLRLSCAASGSIVVNNGMGWYRQAPGKERELVATISERGGGTYYADSVKGRFTISRDNAKNTVYLQMNSLKPEDTAVYYCAARVPRFYFVPLYYWGQGTQVTVSS	low polyreactivity
